Assay results as given in patent US10898548B2, “Modulators of protein tyrosine phosphatase and uses thereof” (LEUVAS THERAPEUTICS, priority 2015, dated 2021).
Entries after “also recorded” stand apart in the source; their conditions may differ. Marks after values point to notes of the source that are not given here. Values belong to the substance of their own block, whether it stands above or below them.

How the values were obtained:
[1] = in vitro phosphatase assay of TAT-ICD (pNPP); assay type: biochemical; settings: 50 μM TAT control peptide or 50 μM TAT-ICD; 30 minutes
Method: Cells were then sonicated twice (6 sec, 15% \N) and centrifuged at 2000 rpm for 10 minutes. The supernatants were collected and centrifuged at 28000 rpm for 60 minutes and then the membrane pellets were dissolved in 20 mM tris pH 7.4. Equal amount of membrane fractions were added to pNPP buffer containing 20 mM tris, 10 mM DTT and 2 mM pNPP. Following, DMSO and 50 μM TAT control peptide or 50 μM TAT-ICD, in presence or absence of 200 μM Na3VO4 were added. After 30 minutes of incubation, levels of de-phosphorylation, in presence or absence of orthovanadate, were measured at 405 nm by a plate reader (Table 5). Shown is % fold increase over the pNPP buffer alone; mean values of 7 experiments in triplicate.

[2] = tested on: human neutrophils; experiment: fMLP-triggered adhesion of neutrophils (PMNs) to ICAM-1; assay type: cell-based; settings: for adhesion of human neutrophils to ICAM-1 (adherent cells), Resting (no stimulation): mean ± SD
Method: We investigated the functional effect of PTPRG activation on integrin activation and mediated adhesion by chemoattractants in human primary monocytes and PMNs in a static and flow adhesion assays. Briefly, human primary monocytes or polymorphonuclear cells were suspended at 5×10^6/ml in standard adhesion buffer. Adhesion assays were performed on 18-well glass slides coated with 1 mg/ml human fibrinogen or with 1 μg/ml human ICAM-1 in PBS; 20 μl of cell suspension were added to the coated wells and stimulated for 1 min at 37° C. with 5 μl of fMLP, 0.05 μM final concentration. After rapid washing, adherent cells were fixed in ice-cold 1.5% glutaraldehyde in PBS, and still images of adherent cells in 0.2 mm^2 fields were acquired al 20× phase contrast magnification, NA 0.40, with a charge-coupled device camera (ICD-42B; Ikegami) connected to an inverted microscope (IX50; Olympus). Image acquisition and computer-assisted enumeration of adherent cells were performed with ImageJ (National Institute of Health).
Chemokine-triggered adhesion of human neutrophils was measured similarly. Freshly isolated, non-activated human neutrophils incubated with buffer or increasing concentrations of TAT-ICD and then spotted onto ICAM-1-coated slides. Integrin-mediated adhesion was triggered using 50 nM fMLP and the adherent cells were fixed and enumerated as described for the lymphocytes above.

[3] = tested on: normal primary cortical murine neurons; experiment: MTT assay, normal primary cortical neurons; assay type: cell-based, mouse
Method: Briefly, U251 GBM cells, normal primary cortical murine neurons and a mixed culture of murine microglia and astrocytes were treated for 24, 48 and 72 hours with no treatment (control), delivery peptide (P1 or TAT) or increasing concentrations of P1-WD or TAT-ICD. Cell viability and survival was measured using the MTT assay, a colorimetric assay for assessing cell metabolic activity set up under conditions where the absorption reflects the number of viable cells present (Table 21 and 22) and expressed as relative absorption at 570 nm. Early apoptosis was measured using VYBRANT DyeCycle Violet stain (Molecular Probes), a DNA-selective, cell membrane-permeant dye that can distinguish the compacted state of the nuclear chromatin in apoptotic cells as determined by flow cytometry and presented as the percent of cells that are apoptotic (Table 23 and 24). The actual number of cells following treatment with TAT-ICD or TAT alone (Table 25) was determined using flow cytometry compared to an input of 5,000 cells at time zero. To confirm apoptosis the TUNEL labeling assay, which detects DNA strand breaks in apoptotic cells by fluorescence microscopy, was also used to examine U251 cells treated with the PTPRG WD. Briefly, the assay used an optimized terminal transferase ([…]) to label 3′OH ends in genomic DNA with TMR-dUTP, thus allowing the measurement and quantification of cell death by apoptosis. U251 cells were pretreated for 1, 3 and 6 hours with 50 μM P1-WD. Then cells were fixed and permeabilized, incubated with TUNEL reaction mixture for 1 h at RT, and then stained with DAPI (for nuclei detection) and with Alexa670-Phalloidin (to detect actin in cell membranes). After the staining steps, cells were visualized with a confocal microscope.
In striking contrast, treatment of normal primary cortical neurons isolated from mouse pups treated with TAT alone or TAT-ICD for 24-72 hours (Table 26) are mean and sd of absorption using the MTT assay as described above.

[4] = tested on: tyrosine phosphatase activity in PMNs; experiment: in vitro phosphatase activity (pNPP) on membranes from human primary PMNs; assay type: biochemical; settings: PMN membranes, DMSO 0.75
Method: (§1) We first tested the biochemical activity of the fusion peptide by performing in vitro assays of phosphatase activity on purified membranes isolated from human primary monocytes compared to membranes isolated from human primary polymorphonuclear cells (PMNs). Human primary monocytes and polymorphonuclear (PMNs) cells were isolated from whole blood of healthy donors. Purity of monocyte preparation was evaluated by flow cytometry after staining with fluorescein isothiocyanate (FITC)-conjugated anti-CD14 antibody and was more than 95%. Isolated cells were kept at 37° C. in standard adhesion buffer (PBS, 1 mM CaCl2, 1 mM MgCl2, 10% FBS, pH 7.2) and used within 1 h.
(§2) The phosphatase activity in membrane fractions isolated from human monocytes and PMNs was assessed. […] Cells were then sonicated twice (6 sec, 15% W) and centrifuged at 2000 rpm for 10 minutes. The supernatants were collected and centrifuged at 28000 rpm for 60 minutes. After centrifugation, the supernatants were discarded, and the membrane pellets were dissolved in 20 mM tris pH 7.4. Equal amount of membrane fractions were added to pNPP buffer containing 20 mM tris, 10 mM DTT and 2 mM pNPP. Following, DMSO and peptides were added. After 30 minutes of incubation, levels of de-phosphorylation, in presence or absence of orthovanadate, were measured at 405 nm by a plate reader. Values are absorbance at 405 nn shown as percent fold increase over the blank; mean values of three experiments are shown. *p<0.001 vs vehicle (DMSO).

[5] = tested on: PTPRG; experiment: in vitro phosphatase activity (pNPP) on membranes from human primary monocytes; assay type: biochemical; settings: monocyte membranes, DMSO 7.25
Method: as §1, §2

[6] = 0.25 uM, 24 hours, Control 1116
[7] = 0.25 uM, 48 hours, Control 1022
[8] = control peptide, concentration not given

Substance: TAT-ICD: fusion recombinant protein SEQ ID 5: PTPRG intracellular domain aa 797-1445 fused to 13 aa TAT sequence
- phosphatase activity, % fold increase over the pNPP buffer alone [1]: 4661.0%
- adhesion of human neutrophils to ICAM-1 (adherent cells), Resting (no stimulation) ([2]; TAT-ICD 0.5 micromolar): 12 ± 5
- adhesion of human neutrophils to ICAM-1 (adherent cells), Resting (no stimulation) ([2]; TAT-ICD 1.0 micromolar): 12 ± 5
- absorbance in the MTT assay ([3]; 0.1 uM, 24 hours, Control 1116): 1115
- absorbance in the MTT assay ([3]; 0.1 uM, 48 hours, Control 1022): 989
- absorbance in the MTT assay ([3]; 0.1 uM, 72 hours, Control 994): 1074
- absorbance in the MTT assay [3, 6]: 928
- absorbance in the MTT assay [3, 7]: 923
- absorbance in the MTT assay ([3]; 0.25 uM, 72 hours, Control 994): 1204
- absorbance in the MTT assay ([3]; 0.5 uM, 24 hours, Control 1116): 1164
- absorbance in the MTT assay ([3]; 0.5 uM, 48 hours, Control 1022): 1109
- absorbance in the MTT assay ([3]; 0.5 uM, 72 hours, Control 994): 1376

Substance: P1: Penetratin delivery peptide, 16 aa RQIKIWFQNRRMKWKK (SEQ ID 4), control [reference compound]
- phosphatase activity, absorbance at 405 nm as percent fold increase over the blank [4, 8]: 5.08%
- phosphatase activity, absorbance at 405 nm as percent fold increase over the blank [5, 8]: 16.00%

- phosphatase activity, absorbance at 405 nm as percent fold increase over the blank ([4]; P1-WD 50 micromolar): 5.15%
- phosphatase activity, absorbance at 405 nm as percent fold increase over the blank ([4]; P1-WD 100 micromolar): 8.54%
- phosphatase activity, absorbance at 405 nm as percent fold increase over the blank ([4]; P1-WD 200 micromolar): 12.89%
- phosphatase activity, absorbance at 405 nm as percent fold increase over the blank ([5]; P1-WD 50 micromolar): 34.62* %
- phosphatase activity, absorbance at 405 nm as percent fold increase over the blank ([5]; P1-WD 100 micromolar): 86.70* %
- phosphatase activity, absorbance at 405 nm as percent fold increase over the blank ([5]; P1-WD 200 micromolar): 109.00* %
Substance: P1-WD: fusion Trojan peptide SEQ ID 3: Penetratin, glycine, PTPRG wedge domain aa 831-856; RQIKIWFQNRRMKWKKGKQFVKHIGELYSNNQHGFSEDFEEVQ (listed as Homo sapiens)
- chemoattractant-induced adhesion / integrin activation of PMNs ([2]; human PMNs): completely unaffected; also recorded: not able to block

Substance: TAT (GRKKRRQRRRPPQ; listed as Homo sapiens) [reference compound]
- phosphatase activity, % fold increase over the pNPP buffer alone [1]: 191.7%
- absorbance in the MTT assay ([3]; 0.1 uM, 24 hours, Control 1116): 1150
- absorbance in the MTT assay ([3]; 0.1 uM, 48 hours, Control 1022): 1151
- absorbance in the MTT assay ([3]; 0.1 uM, 72 hours, Control 994): 1151
- absorbance in the MTT assay [3, 6]: 908
- absorbance in the MTT assay [3, 7]: 955
- absorbance in the MTT assay ([3]; 0.25 uM, 72 hours, Control 994): 957
- absorbance in the MTT assay ([3]; 0.5 uM, 24 hours, Control 1116): 1184
- absorbance in the MTT assay ([3]; 0.5 uM, 48 hours, Control 1022): 1148
- absorbance in the MTT assay ([3]; 0.5 uM, 72 hours, Control 994): 1224
